T1: human NKp30-his protein (KACTUS; Cat: NKP-HM430) (human, UniProt O14931 19-135, limits assumed)
T1 construct: Bought protein (KACTUS NKP-HM430); not shown: His tag
T1 sequence (looked up): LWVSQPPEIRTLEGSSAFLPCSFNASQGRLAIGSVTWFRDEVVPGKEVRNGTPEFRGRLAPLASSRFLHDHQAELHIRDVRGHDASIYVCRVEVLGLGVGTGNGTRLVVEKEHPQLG


Tests used:
[1] = biological target: T1, human NKp30-his protein (KACTUS; Cat: …); assay: BLI (Octet Red96e), antibody captured on AHC sensor, 100 nM human NKp30-his in solution, 1:1 fit
Method: After equilibration of the AHC sensor with 0.02% PBST (0.02% Tween 20, pH 7.4, 1*PBS) as buffer for 60 s, the NKp30 antibody in the sample plate was immobilized for 300 s and second equilibration was performed for 180 s. […] human NKp30-his protein (KACTUS; Cat: NKP-HM430) was bound with NKp30 antibody for 300 s and then dissociated for 600 s. After dissociation, 10 mM glycine (pH 2.0) was used as regeneration buffer to regenerate for 30 s.
Subtract the result plot for reference channel H1 from the test result plot. The experimental data fit the 1:1 binding model. The molecular weight of 35 kDa was used to calculate the molar concentration of human NKp30 protein.

[2] = biological target: T1, human NKp30-his protein (KACTUS; Cat: …); assay: ELISA, Human-NKp30-His coated at 0.2 µg/mL, antibody from 10 µg/mL in 3-fold steps, goat anti-human Fc, OD450 (Example 11)
Method: Human-NKp30-His (purchased from KACTUS, item No. NKP-HM430) was diluted to 0.2 μg/mL with the coating solution (1×PBS, pH 7.4), and was coated into 96-well enzyme-labelled plates at 100 μL/well and allowed to stand overnight at 4° C. The coating solution was poured off, the plate was washed with 1×PBST at 300 μL/well, washed with a plate washer for 4 times, and patted dry on a plate paper. The plate was blocked with 3% skimmed milk powder at 300 μL/well, and incubated at 37° C. for 1 h. The blocking solution was poured off, washed with a plate washer for 4 times, and patted dry on a plate paper. The reference product and the test product were diluted with 3% skimmed milk powder to 10 μg/mL, and the initial concentration was diluted by 3 times. A total of 11 gradients were diluted, and another blank well was set, and only diluent was added. It was incubated at 37° C. and 100 μL/well for 1 h. Liquid in the wells was discarded, and washed with a plate washer for 4 times, and patted dry on a plate paper. The goat anti-human Fc was diluted with 3% skimmed milk powder at 1: 20,000 and 100 μL/well, and incubated at 37° C. for 1 h. The plate was washed with a plate washer for 6 times, and patted dry on a plate paper. TMB color developing solution was added at 100 μL/well, and wrapped with an aluminum foil, and the color was developed at 37° C. for 8 minutes, protected from light. The termination solution 1 M HCl was added at 100 μL/well to terminate the color development reaction. It was read at 450 nm on an enzyme-labeled instrument.

Binder | Kd [1] | EC50 [2]
antibody 7 (antibody, V domains shown, expressed in CHO cells) VH: EVQVVESGGGLVQAGGSLRLSCAASGRTFSNYNVGWFRQAPGKEREFLATISESGGSTYYADSVKGRFTISRDNGINMVYLQMSSLKPEDTAVYYCAESRIFSFSYADGRGYAYWGQGTQVTVFS | 9.64 nM | 
antibody 12 (antibody, V domains shown, expressed in CHO cells) VH: EVQLVESGGDLVQPGGSLRLSCAAFGSSFSIDMMGWYRQVPGKQRELVAGITKGGFADYADSVKGRFTISMDAAKNTVYLQMNSLKPEDTAVYYCNTLPTHSDWGQGTQVTVSS | 0.491 nM | 
antibody 21 (antibody, V domains shown, expressed in CHO cells) VH: EVQLVESGGGLVQPGGSLRLSCAASGSTYAFYNMGWFRQRPGKEREFAAAILWGRSGVYTTYADSVKGRFTISRDNAQNTVYLQMNSLKPEDTAVYYCAAGLGTMRANEYDYWGQGTQVTVSS | 20.1 nM | 
antibody 8 (antibody, V domains shown, expressed in CHO cells) VH: QVQLVESGGGLVQTGDSLRLSCAASGRTYDNYAMGWFRQAPGKEREFVAAFSQNGGRTDYADSVKGRFAISDDRSTVHLDMNSLLPEDTAVYYCAARPPAYFSNAVYSKVDEYRYWGQGTQVTVSS | 9.11 nM | 
antibody 18-hu1 (antibody, V domains shown) VH: EVQLVESGGGLVQPGGSLRLSCAASGIRFSIANMGWYRQAPGKLHEMVSGITSDGFTNYADSVKGRFTISRDNSKNTLYLQMNSLRAEDTAVYYCAKFPTRHYWGQGTLVTVSS |  | 0.0348 µg/mL
antibody 18-hu2 (antibody, V domains shown) VH: EVQLVESGGGLVQPGGSLRLSCAASGIRFSIANMGWYRQAPGKLHEMVAGITSDGFTNYADSVKGRFTISRDNSKNTLYLQMNSLRAEDTAVYYCAKFPTRHYWGQGTLVTVSS |  | 0.0105 µg/mL
antibody 5 (antibody, V domains shown, expressed in CHO cells) VH: EVQVVESGGGLVQAGGSLTLSCAASGRPFSTFPTSMGWFRQAPGKEREFVAAISESGLNTYYRDSVKGRFGISRDNAKNTVYLQMNTLTAEDTAVYFCAAAPGYMTTDSQYYLGNKYQYWGQGTQVTVSS | 104 nM | 
antibody 2 (antibody, V domains shown, expressed in CHO cells) VH: QVQLVESGGGLVQPGGSLRLSCAASGSIFSVNEMGWYRQAPGKLRELVAAITSDGTTAYADSVKGRFTISRDNAKNTVYLQMNSLKPEDTAVYDCNTWPEARGDWGQGTQVTVSS | 0.597 nM | 
antibody 10-hu4 (antibody, V domains shown) VH: EVQLVESGGGLVQPGGSLRLSCAASGITFSRSVMGWFRQAPGKLRELVAGITSDDNTDYADSVKGRFTISRDNSKNTLYLQMNSLRAEDTAVYYCNILPDSRLGWGQGTLVTVSS |  | 0.00719 µg/mL
antibody 10-hu1 (antibody, V domains shown) VH: EVQLVESGGGLVQPGGSLRLSCAASGITFSRSVMGWFRQAPGKLRELVSGITSDDNTDYADSVKGRFTISRDNSKNTLYLQMNSLRAEDTAVYYCARLPDSRLGWGQGTLVTVSS |  | 0.378 µg/mL
antibody 10-hu2 (antibody, V domains shown) VH: EVQLVESGGGLVQPGGSLRLSCAASGITFSRSVMGWFRQAPGKLRELVAGITSDDNTDYADSVKGRFTISRDNSKNTLYLQMNSLRAEDTAVYYCARLPDSRLGWGQGTLVTVSS |  | 0.0246 µg/mL

More lines, now with the values ahead:

Kd [1] | EC50 [2] | Binder
2.31 nM |  | antibody 22 (antibody, V domains shown, expressed in CHO cells) VH: QVQLVESGGGLVQPGGSLRLSCAASGSIFSANVMGWYRQAPGKLRELVAGMHSGGSANYADSVKGRFTISKDNAKNTMYLQMNSLKPEDTAVYYCNFGLGFDGHDYWGQGTQVTVSA
0.433 nM |  | antibody 13 (antibody, V domains shown, expressed in CHO cells) VH: EVQLVESGGGLVQPGGSLRLSCAASGGIFGSTHMGWYRQAPGKLREMVAGITSTGNHRNVADSVKGRFTISKDNAKNTLYLQMNSLKPEDTAVYYCNSFPDQVFNWGQGTQVTVSS
1.81 nM |  | antibody 19 (antibody, V domains shown, expressed in CHO cells) VH: EVQVVESGGDLVQPGGSLRLSCAAFGSSFSIDMMGWYRQVPGKQRELVAGITKGGFADYADSVKGRFTISMDAAKNTVYLQMNSLKPEDTAVYYCNTLPTHSDWGQGTQVTVSS
3.06 nM |  | antibody 11 (antibody, V domains shown, expressed in CHO cells) VH: EVQLVESGGGLVQPGESLRLSCVASGGDFRFKSMGWYRQAPGKLRELVAGITTGGVTDYADSVKGRFTISRDNANKAVWLQMNRLKPDDTAVYDCNTLGAAAYDWGQGTQVTVSS
5.56 nM |  | antibody 9 (antibody, V domains shown, expressed in CHO cells) VH: QVQLVESGGGSVQAGGSLRLSCAASGRTFSDYVMGWFRQAPGKEREFVGTITRIGGMPYYADFVKGRFTISRDYAKNAGYLQLNNLKPEDTALYYCALDLRLRLGVTPREYDYWGQGTQVTVSS
1.26 nM |  | antibody 17 (antibody, V domains shown, expressed in CHO cells) VH: QLQLVESGGGLVQPGGSLRLSCAASGSIDSINAMGWYRQAPGKLRELVAGITRGGDVNYADSVKGRFTISRVDARNTVTVYLQMNSLKPEDTAVYYCNNLGFPSDWAQGTQVTVSS
1.25 nM |  | antibody 20 (antibody, V domains shown, expressed in CHO cells) VH: EVQLVESGGGLVQPGGSLRLSCAASGSAFSIEPWGWYRQAPGQLRELVAGITSDDKTDYADSVKDRFTISRDNAKNTVFLQMNSLKPEDTAVYYCNVLGWPRDDYWGQGTQVTVSS
2.88 nM |  | antibody 6 (antibody, V domains shown, expressed in CHO cells) VH: QVQLVESGGGLVQPGGSLRLSCAASRAIFPEYSIAWFRQAPGKEREGVALVSRIGDRVDYADSVKGRFTISRDNAKNTVYLQMNSLKPEDTAVYHCAAGQLSSSTYYGDEYVYWGQGTQVTVSS
1.35 nM |  | antibody 14 (antibody, V domains shown, expressed in CHO cells) VH: QLQLVESGGGLVQPGGSLRLSCAVSASIFSVNEMGWYRQAPGKLRELVAAITSDGTTAYADSVKGRFTISRDNAKNTVYLQMNSLKPEDTAVYDCNTWPQARGDWGQGTQVTVSS
4.97 nM |  | antibody 4 (antibody, V domains shown, expressed in CHO cells) VH: QVQLVESGGGLVQPGGSLRLSCAASGSIFKINAMGWYRQAPGKLRELVAGITSGGSTNYADSVKGRFTISRDNAKNTLYLQMNSLKPDDTAVYYCNQLGFPQYWGQGTQVTVSS
2.07 nM |  | antibody 3 (antibody, V domains shown, expressed in CHO cells) VH: QLQLVESGGGLVQTGDSTKLSCTASGRSFSINDMGWYRQAPGKLRELVAGITSGGSTNYADSVKGRFTISRDNAKNTVYLQMNSLKPEDTAVYYCNVLGWPDFGSWGQGTQVTVSS
0.347 nM |  | antibody 15 (antibody, V domains shown, expressed in CHO cells) VH: EVQLVESGGGSVQTGGSLRLSCAASGPTFNFYGMAWFRQAPGKEREFVASIIPGSGDTSYASSVRGRFTISEDNARNNAYLQMNTLKPEDTAVYYCAAGTGGIYSSDYPYWGQGTQVTVSS
1.46 nM |  | antibody 1 (antibody, V domains shown, expressed in CHO cells) VH: QLQLVESGGGTVQTGGSLRLACVVSGPTYSFYDMGWFRRAPGKEREFVAAVTASGDTTIYADSVKGRFTIARDNAKNTVYLQMNSLKSEDTGAYYCAAGEYSSTAATYYYWGQGTQVTVSS
0.997 nM |  | antibody 16 (antibody, V domains shown, expressed in CHO cells) VH: EVQLVESGGGLVQAGGSLRLSCAASGISLITYNMGWYRQAPGKLRELVAGITTGGITDYTDSVKGRFTISRDNAKNTLYLQMNSLKPEDTAVYYCDTLGMANYWGQGTQVTVSS

From patent US20240150460A1 (SHENGHE CHINA BIOPHARMACEUTICAL, published 2024)
